B1: Interleukin-1 receptor-like 1 (Mus musculus), P14719 (parent)
chain: MIDRQRMGLWALAILTLPMYLTVTEGSKSSWGLENEALIVRCPQRGRSTYPVEWYYSDTNESIPTQKRNRIFVSRDRLKFLPARVEDSGIYACVIRSPNLNKTGYLNVTIHKKPPSCNIPDYLMYSTVRGSDKNFKITCPTIDLYNWTAPVQWFKNCKALQEPRFRAHRSYLFIDNVTHDDEGDYTCQFTHAENGTNYIVTATRSFTVEEKGFSMFPVITNPPYNHTMEVEIGKPASIACSACFGKGSHFLADVLWQINKTVVGNFGEARIQEEEGRNESSSNDMDCLTSVLRITGVTEKDLSLEYDCLALNLHGMIRHTIRLRRKQPIDHRSIYYIVAGCSLLLMFINVLVIVLKVFWIEVALFWRDIVTPYKTRNDGKLYDAYIIYPRVFRGSAAGTHSVEYFVHHTLPDVLENKCGYKLCIYGRDLLPGQDAATVVESSIQNSRRQVFVLAPHMMHSKEFAYEQEIALHSALIQNNSKVILIEMEPLGEASRLQVGDLQDSLQHLVKIQGTIKWREDHVADKQSLSSKFWKHVRYQMPVPERASKTASVAAPLSGKACLDLKHF
partner: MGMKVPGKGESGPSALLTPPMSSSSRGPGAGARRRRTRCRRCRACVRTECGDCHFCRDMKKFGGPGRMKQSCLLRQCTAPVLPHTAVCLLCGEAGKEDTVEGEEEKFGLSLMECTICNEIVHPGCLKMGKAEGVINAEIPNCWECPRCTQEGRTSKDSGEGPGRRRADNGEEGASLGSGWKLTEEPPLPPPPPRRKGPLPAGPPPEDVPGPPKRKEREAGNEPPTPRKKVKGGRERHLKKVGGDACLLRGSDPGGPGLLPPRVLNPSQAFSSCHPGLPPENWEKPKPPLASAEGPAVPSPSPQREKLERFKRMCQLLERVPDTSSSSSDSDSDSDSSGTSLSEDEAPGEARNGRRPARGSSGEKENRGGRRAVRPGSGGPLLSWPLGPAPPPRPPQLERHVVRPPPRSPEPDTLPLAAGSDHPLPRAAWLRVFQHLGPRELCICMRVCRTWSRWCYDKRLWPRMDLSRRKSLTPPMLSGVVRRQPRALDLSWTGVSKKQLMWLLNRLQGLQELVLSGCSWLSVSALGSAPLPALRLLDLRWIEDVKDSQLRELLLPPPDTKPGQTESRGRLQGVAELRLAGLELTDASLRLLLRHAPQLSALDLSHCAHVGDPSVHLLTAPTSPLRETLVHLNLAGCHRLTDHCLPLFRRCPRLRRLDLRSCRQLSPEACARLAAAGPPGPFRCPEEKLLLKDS

Variants of: B1
Conditions: with fxl19_human FBXL19, Q6PCT2

effect of a mutation on the interaction | Variant
decreasing interaction | S442A

From IntAct's records for PubMed 22660580
